Patent US20070059820A1

Tests used:
recombinant Flk-1 [1] = molecular target: recombinant Flk-1 (UniProt P35918); assay: ELISA on coated recombinant Flk-1, anti-rat IgG1 HRP; antibody at 0 ng/ml (background)
recombinant Flk-1 [2] = molecular target: recombinant Flk-1 (UniProt P35918); assay: ELISA on coated recombinant Flk-1, anti-rat IgG1 HRP; antibody at 1000 ng/ml
recombinant Flk-1 [3] = molecular target: recombinant Flk-1 (UniProt P35918); assay: ELISA on coated recombinant Flk-1, anti-rat IgG1 HRP; antibody at 12 ng/ml
recombinant Flk-1 [4] = molecular target: recombinant Flk-1 (UniProt P35918); assay: competition ELISA: antibody mixed with Flk-1, added to coated human VEGF, anti-Flk-1-HRP; antibody at 0 ng/ml (no inhibitor)
recombinant Flk-1 [5] = molecular target: recombinant Flk-1 (UniProt P35918); assay: ELISA on coated recombinant Flk-1, anti-rat IgG1 HRP; antibody at 4 ng/ml
recombinant Flk-1 [6] = molecular target: recombinant Flk-1 (UniProt P35918); assay: competition ELISA: antibody mixed with Flk-1, added to coated human VEGF, anti-Flk-1-HRP; antibody at 4 ng/ml
recombinant Flk-1 [7] = molecular target: recombinant Flk-1 (UniProt P35918); assay: competition ELISA: antibody mixed with Flk-1, added to coated human VEGF, anti-Flk-1-HRP; antibody at 111 ng/ml
recombinant Flk-1 [8] = molecular target: recombinant Flk-1 (UniProt P35918); assay: competition ELISA: antibody mixed with Flk-1, added to coated human VEGF, anti-Flk-1-HRP; antibody at 333 ng/ml
recombinant Flk-1 [9] = molecular target: recombinant Flk-1 (UniProt P35918); assay: competition ELISA: antibody mixed with Flk-1, added to coated human VEGF, anti-Flk-1-HRP; antibody at 37 ng/ml
recombinant Flk-1 [10] = molecular target: recombinant Flk-1 (UniProt P35918); assay: competition ELISA: antibody mixed with Flk-1, added to coated human VEGF, anti-Flk-1-HRP; antibody at 1000 ng/ml
recombinant Flk-1 [11] = molecular target: recombinant Flk-1 (UniProt P35918); assay: ELISA on coated recombinant Flk-1, anti-rat IgG1 HRP; antibody at 37 ng/ml
recombinant Flk-1 [12] = molecular target: recombinant Flk-1 (UniProt P35918); assay: ELISA on coated recombinant Flk-1, anti-rat IgG1 HRP; antibody at 111 ng/ml
recombinant Flk-1 [13] = molecular target: recombinant Flk-1 (UniProt P35918); assay: ELISA on coated recombinant Flk-1, anti-rat IgG1 HRP; antibody at 333 ng/ml
recombinant Flk-1 [14] = molecular target: recombinant Flk-1 (UniProt P35918); assay: competition ELISA: antibody mixed with Flk-1, added to coated human VEGF, anti-Flk-1-HRP; antibody at 12 ng/ml

Sequence of UniProt P35918 (P35918 20-762 limits assumed): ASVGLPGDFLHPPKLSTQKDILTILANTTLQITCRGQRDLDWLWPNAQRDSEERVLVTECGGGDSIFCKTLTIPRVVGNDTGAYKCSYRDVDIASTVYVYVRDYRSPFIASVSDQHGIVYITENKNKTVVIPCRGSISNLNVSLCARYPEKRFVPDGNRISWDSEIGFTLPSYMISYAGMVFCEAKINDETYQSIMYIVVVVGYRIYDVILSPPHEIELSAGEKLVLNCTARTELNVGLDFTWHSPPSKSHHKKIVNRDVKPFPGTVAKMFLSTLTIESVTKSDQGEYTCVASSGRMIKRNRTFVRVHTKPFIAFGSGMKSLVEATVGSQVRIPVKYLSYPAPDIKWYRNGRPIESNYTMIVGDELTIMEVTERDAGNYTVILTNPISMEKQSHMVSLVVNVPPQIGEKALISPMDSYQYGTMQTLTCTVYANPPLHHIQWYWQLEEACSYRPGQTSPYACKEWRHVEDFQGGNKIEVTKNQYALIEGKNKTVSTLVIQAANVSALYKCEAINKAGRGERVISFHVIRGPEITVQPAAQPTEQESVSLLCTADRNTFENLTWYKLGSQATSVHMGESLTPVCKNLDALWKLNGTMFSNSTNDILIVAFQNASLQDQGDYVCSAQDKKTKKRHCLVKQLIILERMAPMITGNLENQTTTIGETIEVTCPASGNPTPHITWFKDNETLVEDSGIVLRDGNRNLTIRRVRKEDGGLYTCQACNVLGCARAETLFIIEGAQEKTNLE

An ELISA signal (name and unit not given) (recombinant Flk-1 [1]) of 0.117, an ELISA signal (name and unit not given) (recombinant Flk-1 [2]) of 1.12 and an ELISA signal (name and unit not given) (recombinant Flk-1 [3]) of 0.403 were found for DC101 antibody produced by a hybridoma in this work. The signal of Flk-1 bound to coated VEGF (name and unit not given) (recombinant Flk-1 [4]) was 1.1, the ELISA signal (name and unit not given) (recombinant Flk-1 [5]) was 0.312 and the signal of Flk-1 bound to coated VEGF (name and unit not given) (recombinant Flk-1 [6]) was 0.992. For the same molecule, the signal of Flk-1 bound to coated VEGF (name and unit not given) (recombinant Flk-1 [7]) was 0.635, the signal of Flk-1 bound to coated VEGF (name and unit not given) (recombinant Flk-1 [8]) was 0.357 and the signal of Flk-1 bound to coated VEGF (name and unit not given) (recombinant Flk-1 [9]) was 0.834. For the same molecule, the signal of Flk-1 bound to coated VEGF (name and unit not given) (recombinant Flk-1 [10]) was 0.193, the ELISA signal (name and unit not given) (recombinant Flk-1 [11]) was 0.585 and the ELISA signal (name and unit not given) (recombinant Flk-1 [12]) was 0.724. It also gave an ELISA signal (name and unit not given) (recombinant Flk-1 [13]) of 0.894 and a signal of Flk-1 bound to coated VEGF (name and unit not given) (recombinant Flk-1 [14]) of 0.931.

B1: DC101 antibody expressed from CHO-S cells infected with Lenti-DC101-furin/2A14 (clone 7x-24) (antibody, from another filing, V domains shown)
VH: EVQLVETGGGLVQPGNSLKLSCATSGFIFSTTWMNWIRQTPGKRLEWLAQIEDKSNNYFISYSESVKGRFTISRDDSKSSVYLQMNNLKEEDTAIYYCSWKYRSNYYFDYWGQGVMVTVSS
VL: DIVLTQSPALAVSLEQRATISCKTSQNVDYYGISYLHWYQQKPGQQPKLLIYEGSNLASGIPARFSGSGSGTDFTLTIDPVEADDIVTYYCQQSKDYPYTFGAGTKLELKR
An ELISA signal (name and unit not given) (recombinant Flk-1 [1]) of 0.129, an ELISA signal (name and unit not given) (recombinant Flk-1 [2]) of 1.14 and an ELISA signal (name and unit not given) (recombinant Flk-1 [3]) of 0.412 were found for B1 in this work. It also gave a signal of Flk-1 bound to coated VEGF (name and unit not given) (recombinant Flk-1 [4]) of 1.07, an ELISA signal (name and unit not given) (recombinant Flk-1 [5]) of 0.274 and a signal of Flk-1 bound to coated VEGF (name and unit not given) (recombinant Flk-1 [6]) of 1.04. The signal of Flk-1 bound to coated VEGF (name and unit not given) (recombinant Flk-1 [7]) was 0.43, the signal of Flk-1 bound to coated VEGF (name and unit not given) (recombinant Flk-1 [8]) was 0.237 and the signal of Flk-1 bound to coated VEGF (name and unit not given) (recombinant Flk-1 [9]) was 0.826. For the same molecule, the signal of Flk-1 bound to coated VEGF (name and unit not given) (recombinant Flk-1 [10]) was 0.184, the ELISA signal (name and unit not given) (recombinant Flk-1 [11]) was 0.486 and the ELISA signal (name and unit not given) (recombinant Flk-1 [12]) was 0.616. For the same molecule, the ELISA signal (name and unit not given) (recombinant Flk-1 [13]) was 0.993 and the signal of Flk-1 bound to coated VEGF (name and unit not given) (recombinant Flk-1 [14]) was 0.945.
